In data set [1] the test system is E. coli BL21(DE3)pLysS cells. The data set can be described thus: Titers of hydroxycinnamic acids in supernatants of E. coli cultures expressing TAL homologs. It counts as cell-based, Escherichia coli. Particulars: 16 hours, 37° C., duplicate. The procedure:
E. coli strains described in Example 1 were used. M9 medium with 0.2% glucose and 0.5 mM IPTG also containing either tyrosine (204 μM), L-dopa (194 μM) or 3-O-methyldopa (262 μM) was transferred as 3-mL aliquots into a 24-well deep-well plate (Enzyscreen). Aliquots were taken for HPLC before the wells were inoculated with 200 μL of overnight cultures of the strains. The plates were placed at 37° C. with shaking for 16 hours. Samples of the supernatant were withdrawn after two rounds of centrifugation. The samples were subjected to HPLC along with chemical standards as described in Example 1. p-coumaric acid, caffeic acid and ferulic acid was measured by absorbance at 333 nm. Tyrosine, L-dopa and 3-O-methyldopa were measured by fluorescence (excitation at 274 nm, emission at 303 nm).
There was no measurable product in the medium before inoculation.

The test system of data set [2] is L. lactis NZ9000ΔldhΔldhB. The data set can be described thus: Specific pHCA and CA productivity of L. lactis strains expressing TAL/PAL enzymes in CDM. It counts as cell-based, Lactococcus lactis. The source says:
The synthetic RsXALI (protein GI 129592) and RmXALI (protein GI 126464011) genes, codon optimized for Lactococcus lactis (GeneArt), were cloned into the nisin inducible expression vector pNZ8048 (Kuipers et al., 1998) as follows: RsXALI (SEQ ID NO: 56) and RmXALI (SEQ ID NO: 57) genes and the vector were PCR amplified using the primers listed in Table 7, and were assembled in a single-tube isothermal reaction using the Gibson Assembly Master Mix (New England Biolabs). Reaction products were ethanol-precipitated and suspended in double distilled water before transformation into L. lactis by electroporation as described by Holo and Nes (1995). The synthetic genes encoding SeSam8, R_XAL, HaXAL1 and FjXAL described in a previous example above were amplified by PCR using the primer pairs listed in Table 1, digested with specific restriction enzymes, and cloned in-between the NcoI and XbaI restriction sites of pNZ8048. The plasmids were obtained and maintained in L. lactis NZ9000 (Kuipers et al., 1998) and the gene sequences of the different constructs were verified by sequencing.
To assess pHCA production, TAL-expression vectors were transformed into a strain derived from NZ9000, but with deletion of the genes Idh and dhB (NZ9000ΔldhΔldhB). A control strain was also constructed by transformation of NZ9000ΔldhΔldhB with empty expression vector pNZ8048.
For molecular biology procedures, L. lactis strains were cultivated as batch cultures (flasks) without aeration in M17 medium (Difco™, USA) supplemented with 0.5% glucose (w/v) at 30° C. To assess pHCA production, strains were grown as static cultures in chemically defined medium (CDM; Poolman and Konings, 1988) containing 1% glucose (wt/vol) without pH control (initial pH 6.5 or 7.0) and supplemented with 1.7 or 3.7 mM L-tyrosine. Plasmid selection was achieved by addition of 5 μg mL^−1 chloramphenicol to the growth medium. Growth was monitored by measuring OD600. For heterologous expression of cloned tyrosine ammonia lyases, L. lactis strains were grown in CDM and nisin (1.5 μg L^−1) was added at an OD600 of 0.3-0.4. Samples (1 mL) of cultures were collected at different points during growth; centrifuged (16,100×g, 10 min, 4° C.) and the supernatants stored at −20° C. until analysis by HPLC as described in a previous example above. […] The first six columns are results from media containing 1.7 mM tyrosine. The seventh and ninth columns represent samples from strains grown in media containing 3.7 mM tyrosine, and the eighth and ninth columns are data from media with 68.5 mM 3-(N-morpholino)propanesulfonic acid (MOPS) and initial pH adjusted to 7.0 rather than 6.5.

For data set [3], the system named is Saccharomyces cerevisiae CEN.PK102-5B. The data set can be described thus: Specific production of pHCA and CA by S. cerevisiae expressing TAL enzymes. The data set is classed as cell-based. Conditions: 72 h, 30° C., +/- standard deviation. The source says: A number of the previously characterized enzymes were characterized when expressed in Saccharomyces cerevisiae. Genes encoding HaXAL1 and FjXAL were synthesized with codon optimization for S. cerevisiae available by GeneArt (Life Technologies), and were named HaXAL1 Sc and FjXALSc. Genes were amplified using the oligonucleotide (refer to specific name) shown in Table 6, and inserted by uracil-excision into the vector pCfB132 together with the PPGK1 promoter amplified by primers PPGK1_fw and PPGK1_rv (Jensen et al., 2014). The finished plasmids were transformed into Saccharomyces cerevisiae CEN.PK102-5B (MAT a ura3-52 his3Δ1 leu2-3/112 MAL2-8c SUC2) using a standard lithium acetate transformation protocol and selected for on synthetic drop-out media plates lacking uracil.
Cells were grown in SC medium without uracil, and diluted into Delft medium or Feed-In-Time (FIT) medium (m2p-labs) supplemented with leucine and histidine. After 72 h of incubation at 30° C. with shaking, samples were taken for the analysis of optical density at 600 nm and for clarification of the supernatant, which was analyzed by HPLC as described in example 1. The specific production was calculated as micromolar (μM) concentration per unit of optical density of the culture at 600 nm and is shown in Table 4.

The values below come from patent publication US11306331B2, “Processes for the production of hydroxycinnamic acids using polypeptides having tyrosine ammonia lyase activity” (CysBio ApS, priority 2014, dated 2022).

B1: Flavobacterium johnsoniae FjXAL tyrosine ammonia lyase (Protein GI 146298870), SEQ ID NO: 1, His-tagged (N-terminal tag SEQ ID NO: 11) (Flavobacterium … (protein)
chain: MNTINEYLSLEEFEAIIFGNQKVTISDVVVNRVNESFNFLKEFSGNKVIYGVNTGFGPMAQYRIKESDQIQLQYNLIRSHSSGTGKPLSPVCAKAAILARLNTLSLGNSGVHPSVINLMSELINKDITPLIFEHGGVGASGDLVQLSHLALVLIGEGEVFYKGERRPTPEVFEIEGLKPIQVEIREGLALINGTSVMTGIGVVNVYHAKKLLDWSLKSSCAINELVQAYDDHFSAELNQTKRHKGQQEIALKMRQNLSDSTLIRKREDHLYSGENTEEIFKEKVQEYYSLRCVPQILGPVLETINNVASILEDEFNSANDNPIIDVKNQHVYHGGNFHGDYISLEMDKLKIVITKLTMLAERQLNYLLNSKINELLPPFVNLGTLGFNFGMQGVQFTATSTTAESQMLSNPMYVHSIPNNNDNQDIVSMGTNSAVITSKVIENAFEVLAIEMITIVQAIDYLGQKDKISSVSKKWYDEIRNIIPTFKEDQVMYPFVQKVKDHLINN
B1: in data set [1] (M9 + 3-O-methyldopa (262 μM)), the “Titer of ferulic acid” value is 1.1 ± 0.3 µM. For the same molecule, the “Titer of caffeic acid” value in data set [1] (M9 + L-dopa (194 μM)) was 5.7 ± 1.0 µM. Also, the “Titer of p-coumaric acid” value in data set [1] (M9 + tyrosine (204 μM)) was 215 ± 11.1 µM. Besides, in data set [2] (CDM, 1.7 mM tyrosine), the “increase in specific production of pHCA over RmXALI, the second-best enzyme” value is on record as “five-fold increase”. Moreover, the “Specific production of pHCA” value was 15 μM OD600^−1 in data set [2] (CDM, 1.7 mM tyrosine, initial pH 6.5); 120 ± 16 μM OD600-1 in data set [3] (Delft + Tyr (10 mM)); 30 ± 3.5 μM OD600-1 in data set [3] (Delft medium); 120 ± 19 μM OD600-1 in data set [3] (FIT + Tyr (10 mM)); 130 ± 16 μM OD600-1 in data set [3] (FIT medium). In addition, in data set [2] (tyrosine increased from 1.7 mM to 3.7 mM and/or pH increased from 6.5 to 7.0), the “specific productivity of pHCA” value is on record as 24 μMD600^−1. For the same molecule, the “Specific production of CA” value in data set [3] (Delft + Tyr (10 mM)), in data set [3] (Delft medium), in data set [3] (FIT + Tyr (10 mM)) and in data set [3] (FIT medium) was 0 ± 0 μM OD600-1 in each case.
